The subject of the experiment is HUVECs. Put plainly: In vitro tube formation assay on Matrigel. It counts as cell-based, human. The conditions noted are these: positive controls, 4 hours on Matrigel, compared to the control group. On the procedure:
HUVECs (2×10^4 cells/well) were seeded on a layer of polymerized Matrigel and treated with or without visfatin-derived peptides. The Matrigel culture was incubated at 37°C in the EGM supplemented with EGM-Supplement Mix® containing 1% FBS. After 4 hours, changes in the cell morphology were observed using a phase-contrast microscope and photographed at 40× magnification. Each sample was assayed in duplicate, and independent experiments were repeated three times. Angiogenesis was analyzed with ImageJ software using an angiogenesis analyzer (Bethesda, MD, USA).

B1: visfatin: Commercial recombinant mouse visfatin (Adipogen Life Science), positive control (protein, UniProt Q99KQ4 1-491, looked up)
Nicotinamide …: MNAAAEAEFNILLATDSYKVTHYKQYPPNTSKVYSYFECREKKTENSKVRKVKYEETVFYGLQYILNKYLKGKVVTKEKIQEAKEVYREHFQDDVFNERGWNYILEKYDGHLPIEVKAVPEGSVIPRGNVLFTVENTDPECYWLTNWIETILVQSWYPITVATNSREQKKILAKYLLETSGNLDGLEYKLHDFGYRGVSSQETAGIGASAHLVNFKGTDTVAGIALIKKYYGTKDPVPGYSVPAAEHSTITAWGKDHEKDAFEHIVTQFSSVPVSVVSDSYDIYNACEKIWGEDLRHLIVSRSTEAPLIIRPDSGNPLDTVLKVLDILGKKFPVTENSKGYKLLPPYLRVIQGDGVDINTLQEIVEGMKQKKWSIENVSFGSGGALLQKLTRDLLNCSFKCSYVVTNGLGVNVFKDPVADPNKRSKKGRLSLHRTPAGNFVTLEEGKGDLEEYGHDLLHTVFKNGKVTKSYSFDEVRKNAQLNIEQDVAPH
Take B1: the number of meshes entry is “not significantly different”.
